Columns and labels:
alpha-tropomyosin [1] = biological target: T1, alpha-tropomyosin (Oryctolagus cuniculus, UniProt P58772); assay: fluorescence titration
alpha-tropomyosin [2] = biological target: T1, alpha-tropomyosin; assay: ITC

T1 sequence (P58772 whole entry): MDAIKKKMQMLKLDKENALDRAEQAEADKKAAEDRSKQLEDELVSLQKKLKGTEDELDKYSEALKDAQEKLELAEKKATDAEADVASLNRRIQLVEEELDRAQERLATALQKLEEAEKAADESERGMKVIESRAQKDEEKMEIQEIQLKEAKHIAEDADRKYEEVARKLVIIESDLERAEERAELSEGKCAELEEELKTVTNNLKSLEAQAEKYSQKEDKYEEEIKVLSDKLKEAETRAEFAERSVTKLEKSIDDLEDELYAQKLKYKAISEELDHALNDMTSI

Binder	Kd (alpha-tropomyosin [1]) [µM]	Kd (alpha-tropomyosin [2]) [µM]
ENREVGDWHKNIDALSGMEGRKKKFES [cardiac troponin I C-terminal peptide HcTnI-C27-H 184-210]	15	
ENREVGDWRKNIDALSGMEGRKKKFES [cardiac troponin I C-terminal peptide HcTnI-C27 184-210]	8	11

Source: publication PMC7948816 (2021)
